Laboratory results published in publication PMC7367873, “Dissecting the sequence determinants for dephosphorylation by the catalytic subunits of phosphatases PP1 and PP2A” (Nature Communications, 2020).

Tests used:
[1] = tested on: GFP-14-3-3β and its binding proteins; assay: GFP-14-3-3β co-IP with LC-MS/MS label-free quantification, untreated versus PP1c-treated; set-up: species or system human; settings: pairwise comparison PP1 vs untreated, 3 replicates each
GFP-14-3-3β = GFP-14-3-3β co-IP with LC-MS/MS, untreated GFP-14-3-3β versus GFP control (14-3-3 interactome); assay type: binding, human; settings: 3 replicates each
[2] = student's t-test, LC-MS/MS label-free quantification
[3] = pairwise comparison untreated GFP-14-3-3β vs GFP, student's t-test, LC-MS/MS label-free quantification

Molecule	Difference (log2), PP1 vs untreated [1, 2]	Difference (log2), untreated vs GFP (GFP-14-3-3β; [3])	Difference (log2), PP1 vs untreated ([1]; log2 difference, label-free quantification)	Difference (log2), untreated vs GFP (GFP-14-3-3β; log2 difference, pairwise comparison untreated vs GFP, label-free quantification)
HIRIP3 (protein, UniProt Q9BW71 1-556, looked up) HIRA-interacting protein 3: MAREKEMQEFTRSFFRGRPDLSTLTHSIVRRRYLAHSGRSHLEPEEKQALKRLVEEELLKMQVDEAASREDKLDLTKKGKRPPTPCSDPERKRFRFNSESESGSEASSPDYFGPPAKNGVAAEVSPAKEENPRRASKAVEESSDEERQRDLPAQRGEESSEEEEKGYKGKTRKKPVVKKQAPGKASVSRKQAREESEESEAEPVQRTAKKVEGNKGTKSLKESEQESEEEILAQKKEQREEEVEEEEKEEDEEKGDWKPRTRSNGRRKSAREERSCKQKSQAKRLLGDSDSEEEQKEAASSGDDSGRDREPPVQRKSEDRTQLKGGKRLSGSSEDEEDSGKGEPTAKGSRKMARLGSTSGEESDLEREVSDSEAGGGPQGERKNRSSKKSSRKGRTRSSSSSSDGSPEAKGGKAGSGRRGEDHPAVMRLKRYIRACGAHRNYKKLLGSCCSHKERLSILRAELEALGMKGTPSLGKCRALKEQREEAAEVASLDVANIISGSGRPRRRTAWNPLGEAAPPGELYRRTLDSDEERPRPAPPDWSHMRGIISSDGESN	-2.4581 log2	0.3778 log2	–	–
HDAC7 (protein, UniProt Q8WUI4 1-952, looked up) Histone deacetylase 7: MDLRVGQRPPVEPPPEPTLLALQRPQRLHHHLFLAGLQQQRSVEPMRLSMDTPMPELQVGPQEQELRQLLHKDKSKRSAVASSVVKQKLAEVILKKQQAALERTVHPNSPGIPYRTLEPLETEGATRSMLSSFLPPVPSLPSDPPEHFPLRKTVSEPNLKLRYKPKKSLERRKNPLLRKESAPPSLRRRPAETLGDSSPSSSSTPASGCSSPNDSEHGPNPILGSEALLGQRLRLQETSVAPFALPTVSLLPAITLGLPAPARADSDRRTHPTLGPRGPILGSPHTPLFLPHGLEPEAGGTLPSRLQPILLLDPSGSHAPLLTVPGLGPLPFHFAQSLMTTERLSGSGLHWPLSRTRSEPLPPSATAPPPPGPMQPRLEQLKTHVQVIKRSAKPSEKPRLRQIPSAEDLETDGGGPGQVVDDGLEHRELGHGQPEARGPAPLQQHPQVLLWEQQRLAGRLPRGSTGDTVLLPLAQGGHRPLSRAQSSPAAPASLSAPEPASQARVLSSSETPARTLPFTTGLIYDSVMLKHQCSCGDNSRHPEHAGRIQSIWSRLQERGLRSQCECLRGRKASLEELQSVHSERHVLLYGTNPLSRLKLDNGKLAGLLAQRMFVMLPCGGVGVDTDTIWNELHSSNAARWAAGSVTDLAFKVASRELKNGFAVVRPPGHHADHSTAMGFCFFNSVAIACRQLQQQSKASKILIVDWDVHHGNGTQQTFYQDPSVLYISLHRHDDGNFFPGSGAVDEVGAGSGEGFNVNVAWAGGLDPPMGDPEYLAAFRIVVMPIAREFSPDLVLVSAGFDAAEGHPAPLGGYHVSAKCFGYMTQQLMNLAGGAVVLALEGGHDLTAICDASEACVAALLGNRVDPLSEEGWKQKPNLNAIRSLEAVIRVHSKYWGCMQRLASCPDSWVPRVPGADKEEVEAVTALASLSVGILAEDRPSEQLVEEEEPMNL	-2.551 log2	7.896 log2	–	–
SAFB (protein, UniProt Q15424 2-915, looked up) Scaffold attachment factor B1: AETLSGLGDSGAAGAAALSSASSETGTRRLSDLRVIDLRAELRKRNVDSSGNKSVLMERLKKAIEDEGGNPDEIEITSEGNKKTSKRSSKGRKPEEEGVEDNGLEENSGDGQEDVETSLENLQDIDIMDISVLDEAEIDNGSVADCVEDDDADNLQESLSDSRELVEGEMKELPEQLQEHAIEDKETINNLDTSSSDFTILQEIEEPSLEPENEKILDILGETCKSEPVKEESSELEQPFAQDTSSVGPDRKLAEEEDLFDSAHPEEGDLDLASESTAHAQSSKADSLLAVVKREPAEQPGDGERTDCEPVGLEPAVEQSSAASELAEASSEELAEAPTEAPSPEARDSKEDGRKFDFDACNEVPPAPKESSTSEGADQKMSSPEDDSDTKRLSKEEKGRSSCGRNFWVSGLSSTTRATDLKNLFSKYGKVVGAKVVTNARSPGARCYGFVTMSTAEEATKCINHLHKTELHGKMISVEKAKNEPVGKKTSDKRDSDGKKEKSSNSDRSTNLKRDDKCDRKDDAKKGDDGSGEKSKDQDDQKPGPSERSRATKSGSRGTERTVVMDKSKGVPVISVKTSGSKERASKSQDRKSASREKRSVVSFDKVKEPRKSRDSESHSRVRERSEREQRMQAQWEREERERLEIARERLAFQRQRLERERMERERLERERMHVEHERRREQERIHREREELRRQQELRYEQERRPAVRRPYDLDRRDDAYWPEAKRAALDERYHSDFNRQDRFHDFDHRDRGRYPDHSVDRREGSRSMMGEREGQHYPERHGGPERHGRDSRDGWGGYGSDKRMSEGRGLPPPPRRDWGDHGRREDDRSWQGTADGGMMDRDHKRWQGGERSMSGHSGPGHMMNRGGMSGRGSFAPGGASRGHPIPHGGMQGGFGGQSRGSRPSDARFTRRY	-2.475 log2	3.699 log2	–	–
SIPA1 (protein, UniProt Q96FS4 1-1042, looked up) Signal-induced …: MPMWAGGVGSPRRGMAPASTDDLFARKLRQPARPPLTPHTFEPRPVRGPLLRSGSDAGEARPPTPASPRARAHSHEEASRPAATSTRLFTDPLALLGLPAEEPEPAFPPVLEPRWFAHYDVQSLLFDWAPRSQGMGSHSEASSGTLASAEDQAASSDLLHGAPGFVCELGGEGELGLGGPASPPVPPALPNAAVSILEEPQNRTSAYSLEHADLGAGYYRKYFYGKEHQNFFGMDESLGPVAVSLRREEKEGSGGGTLHSYRVIVRTTQLRTLRGTISEDALPPGPPRGLSPRKLLEHVAPQLSPSCLRLGSASPKVPRTLLTLDEQVLSFQRKVGILYCRAGQGSEEEMYNNQEAGPAFMQFLTLLGDVVRLKGFESYRAQLDTKTDSTGTHSLYTTYQDHEIMFHVSTMLPYTPNNQQQLLRKRHIGNDIVTIVFQEPGSKPFCPTTIRSHFQHVFLVVRAHTPCTPHTTYRVAVSRTQDTPAFGPALPAGGGPFAANADFRAFLLAKALNGEQAAGHARQFHAMATRTRQQYLQDLATNEVTTTSLDSASRFGLPSLGGRRRAAPRGPGAELQAAGSLVWGVRAAPGARVAAGAQASGPEGIEVPCLLGISAEALVLVAPRDGRVVFNCACRDVLAWTFSEQQLDLYHGRGEAITLRFDGSPGQAVGEVVARLQLVSRGCETRELALPRDGQGRLGFEVDAEGFVTHVERFTFAETAGLRPGARLLRVCGQTLPSLRPEAAAQLLRSAPKVCVTVLPPDESGRPRRSFSELYTLSLQEPSRRGAPDPVQDEVQGVTLLPTTKQLLHLCLQDGGSPPGPGDLAEERTEFLHSQNSLSPRSSLSDEAPVLPNTTPDLLLATTAKPSVPSADSETPLTQDRPGSPSGSEDKGNPAPELRASFLPRTLSLRNSISRIMSEAGSGTLEDEWQAISEIASTCNTILESLSREGQPIPESGDPKGTPKSDAEPEPGNLSEKVSHLESMLRKLQEDLQKEKADRAALEEEVRSLRHNNRRLQAESESAATRLLLASKQLGSPTADLA	-2.506 log2	4.698 log2	–	–
MYPN (protein, UniProt Q86TC9 1-1320, looked up) Myopalladin: MQDDSIEASTSISQLLRESYLAETRHRGNNERSRAEPSSNPCHFGSPSGAAEGGGGQDDLPDLSAFLSQEELDESVNLARLAINYDPLEKADETQARKRLSPDQMKHSPNLSFEPNFCQDNPRSPTSSKESPQEAKRPQYCSETQSKKVFLNKAADFIEELSSLFKSHSSKRIRPRACKNHKSKLESQNKVMQENSSSFSDLSERRERSSVPIPIPADTRDNEVNHALEQQEAKRREAEQAASEAAGGDTTPGSSPSSLYYEEPLGQPPRFTQKLRSREVPEGTRVQLDCIVVGIPPPQVRWYCEGKELENSPDIHIVQAGNLHSLTIAEAFEEDTGRYSCFASNIYGTDSTSAEIYIEGVSSSDSEGDPNKEEMNRIQKPNEVSSPPTTSAVIPPAVPQAQHLVAQPRVATIQQCQSPTNYLQGLDGKPIIAAPVFTKMLQNLSASEGQLVVFECRVKGAPSPKVEWYREGTLIEDSPDFRILQKKPRSMAEPEEICTLVIAEVFAEDSGCFTCTASNKYGTVSSIAQLHVRGNEDLSNNGSLHSANSTTNLAAIEPQPSPPHSEPPSVEQPPKPKLEGVLVNHNEPRSSSRIGLRVHFNLPEDDKGSEASSEAGVVTTRQTRPDSFQERFNGQATKTPEPSSPVKEPPPVLAKPKLDSTQLQQLHNQVLLEQHQLQNPPPSSPKEFPFSMTVLNSNAPPAVTTSSKQVKAPSSQTFSLARPKYFFPSTNTTAATVAPSSSPVFTLSSTPQTIQRTVSKESLLVSHPSVQTKSPGGLSIQNEPLPPGPTEPTPPPFTFSIPSGNQFQPRCVSPIPVSPTSRIQNPVAFLSSVLPSLPAIPPTNAMGLPRSAPSMPSQGLAKKNTKSPQPVNDDNIRETKNAVIRDLGKKITFSDVRPNQQEYKISSFEQRLMNEIEFRLERTPVDESDDEIQHDEIPTGKCIAPIFDKRLKHFRVTEGSPVTFTCKIVGIPVPKVYWFKDGKQISKRNEHCKMRREGDGTCSLHIESTTSDDDGNYTIMAANPQGRISCSGHLMVQSLPIRSRLTSAGQSHRGRSRVQERDKEPLQERFFRPHFLQAPGDMVAHEGRLCRLDCKVSGLPPPELTWLLNGQPVLPDASHKMLVRETGVHSLLIDPLTQRDAGTYKCIATNKTGQNSFSLELSVVAKEVKKAPVILEKLQNCGVPEGHPVRLECRVIGMPPPVFYWKKDNETIPCTRERISMHQDTTGYACLLIQPAKKSDAGWYTLSAKNEAGIVSCTARLDIYAQWHHQIPPPMSVRPSGSRYGSLTSKGLDIFSAFSSMESTMVYSCSSRSVVESDEL	–	–	1.556	-0.08833
TFEB (protein, UniProt P19484 1-476, looked up) Transcription factor EB: MASRIGLRMQLMREQAQQEEQRERMQQQAVMHYMQQQQQQQQQQLGGPPTPAINTPVHFQSPPPVPGEVLKVQSYLENPTSYHLQQSQHQKVREYLSETYGNKFAAHISPAQGSPKPPPAASPGVRAGHVLSSSAGNSAPNSPMAMLHIGSNPERELDDVIDNIMRLDDVLGYINPEMQMPNTLPLSSSHLNVYSSDPQVTASLVGVTSSSCPADLTQKRELTDAESRALAKERQKKDNHNLIERRRRFNINDRIKELGMLIPKANDLDVRWNKGTILKASVDYIRRMQKDLQKSRELENHSRRLEMTNKQLWLRIQELEMQARVHGLPTTSPSGMNMAELAQQVVKQELPSEEGPGEALMLGAEVPDPEPLPALPPQAPLPLPTQPPSPFHHLDFSHSLSFGGREDEGPPGYPEPLAPGHGSPFPSLSKKDLDLMLLDDSLLPLASDPLLSTMSPEASKASSRRSSFSMEEGDVL	-2.76 log2	5.784 log2	–	–
